Measured values taken from patent US20220162619.

Tested on: T1, synthetic model peptide substrate PLVQ conjugated with 7-amino-4-methylcoumarin (AMC)
T1 sequence: PLVQ

| Substance | enzymatic (proteolytic) activity: hydrolysis of PLVQ-AMC, fluorescence of free AMC |
| --- | --- |
| recombinant truncated triticain-alpha with a C-terminal polyhistidine sequence, expressed in soluble form in E. coli | significantly exceeded the activity of the truncated triticain-alpha preparation 6HIS-Triticain-α-GM, obtained in an insoluble form, as well as that of papain |
| recombinant truncated triticain-alpha with an N-terminal polyhistidine sequence, expressed in soluble form in E. coli | significantly exceeded the activity of the truncated triticain-alpha preparation 6HIS-Triticain-α-GM, obtained in an insoluble form, as well as that of papain |
